{"source": "patent US20120311745A1", "molecular_target": "receptor protein(s) / binding site of Cry1Ab core toxin on Brush Border Membrane Vesicles (BBMV's) f (Spodoptera frugiperda)"}
{"substance": "Cry1Ab core toxin protein (activated core toxin prepared by trypsin digestion of the Cry1Ab protein) (from UniProt P0A370 29-612)", "values": [{"measurement": "IC50", "result": 5, "unit": "nM"}]}
